# Source: patent US5773001 (American Cyanamid Company, dated 1998)
# Read-outs that look alike come from different tables or passages of the source.
# Legend:
# [1] = target: polyepithelial mucin (PEM) antigen on cells (human) (UniProt P15941)
# [2] = target: polyepithelial mucin (PEM) antigen on cells (human) (UniProt P15941); test: competition with 125I-labelled native antibody on A2780DDP cells; IC50 (reference) / IC50 (sample)
# [3] = target: CD33 antigen (human) (UniProt P20138)
# [4] = target: CD33 antigen (human) (UniProt P20138); test: competition with 125I-labelled native antibody on HEL 92.1.7 cells; IC50 (reference) / IC50 (sample)
# [5] = target: CD33 antigen (human) (UniProt P20138); remark: listed apart in the source
# [6] = target: CD33 antigen (human) (UniProt P20138); remark: listed apart in the source
# [7] = target: CD33 antigen (human) (UniProt P20138); remark: listed apart in the source
# [8] = target: CD33 antigen (human) (UniProt P20138); remark: listed apart in the source
# [9] = target: CD33 antigen (human) (UniProt P20138); remark: listed apart in the source
# [10] = target: CD33 antigen (human) (UniProt P20138); remark: listed apart in the source
# [11] = target: CD33 antigen (human) (UniProt P20138); remark: listed apart in the source
# [12] = target: CD33 antigen (human) (UniProt P20138); remark: listed apart in the source
# Sequence of polyepithelial mucin (PEM) antigen on cells (human) (P15941 24-1255): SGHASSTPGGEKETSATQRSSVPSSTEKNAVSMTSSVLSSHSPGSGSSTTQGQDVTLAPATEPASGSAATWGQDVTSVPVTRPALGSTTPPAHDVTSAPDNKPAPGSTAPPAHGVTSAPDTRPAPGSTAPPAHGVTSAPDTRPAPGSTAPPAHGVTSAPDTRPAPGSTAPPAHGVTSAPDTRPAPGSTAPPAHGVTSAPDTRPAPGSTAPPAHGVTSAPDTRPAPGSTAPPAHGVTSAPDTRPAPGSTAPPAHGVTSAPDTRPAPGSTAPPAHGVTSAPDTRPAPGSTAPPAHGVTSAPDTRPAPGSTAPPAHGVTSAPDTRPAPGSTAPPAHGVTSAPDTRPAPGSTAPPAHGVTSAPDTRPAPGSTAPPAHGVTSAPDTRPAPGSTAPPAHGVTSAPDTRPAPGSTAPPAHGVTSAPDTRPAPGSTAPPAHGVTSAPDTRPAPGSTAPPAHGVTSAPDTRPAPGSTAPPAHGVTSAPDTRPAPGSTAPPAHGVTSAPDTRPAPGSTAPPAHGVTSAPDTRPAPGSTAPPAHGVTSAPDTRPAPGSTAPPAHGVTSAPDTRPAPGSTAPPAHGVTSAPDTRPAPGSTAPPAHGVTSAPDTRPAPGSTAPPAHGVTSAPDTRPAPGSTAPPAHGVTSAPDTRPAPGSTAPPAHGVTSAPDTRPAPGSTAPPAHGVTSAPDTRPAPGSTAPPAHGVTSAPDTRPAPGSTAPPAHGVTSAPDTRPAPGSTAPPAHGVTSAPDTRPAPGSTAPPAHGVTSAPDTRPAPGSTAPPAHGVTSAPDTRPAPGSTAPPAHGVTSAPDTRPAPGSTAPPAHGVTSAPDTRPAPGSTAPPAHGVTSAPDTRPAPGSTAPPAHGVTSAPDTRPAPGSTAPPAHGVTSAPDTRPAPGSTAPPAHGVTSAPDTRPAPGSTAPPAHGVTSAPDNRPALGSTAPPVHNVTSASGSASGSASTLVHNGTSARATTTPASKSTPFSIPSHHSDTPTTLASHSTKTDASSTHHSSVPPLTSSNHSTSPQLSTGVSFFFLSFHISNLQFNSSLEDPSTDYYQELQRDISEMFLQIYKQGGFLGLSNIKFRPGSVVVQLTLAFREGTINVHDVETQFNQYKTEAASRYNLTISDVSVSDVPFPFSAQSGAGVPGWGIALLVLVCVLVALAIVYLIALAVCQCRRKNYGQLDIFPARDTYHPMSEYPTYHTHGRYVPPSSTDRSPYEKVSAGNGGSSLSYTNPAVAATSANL
binder,measurement,setting,value
"Conjugate of 4-formyl-3-methoxyphenoxyacetic acid (3) condensed with Calicheamicin N-acetyl gamma dimethyl hydrazide and m-CT-M-01 (antibody, V domains shown, drug-linker amide on lysine side chains, sites not stated; drug-linker amide on lysine side chains, sites not stated) VH: QIQLQQSGPELVKPGASVKISCKASGYTFTDYYINWMKQKPGQGLEWIGWIDPGSGNTKYNEKFKGKATLTVDTSSSTAYMQLSSLTSEDTAVYFCAREKTTYYYAMDYWGQGTSVTVSA VL: DIVMTQAAPSVPVTPGESLSISCRSSKSLLHSNGDTFLYWFLQRPGQSPQLLIYRMSNLASGVPDRFSGSGSGTAFTLRVSRVEAEDVGVYYCMQHLEYPFTFGAGTKLELKR",In vitro IC50 (3H-thymidine incorporation),[1],5.6 ng/mL
same,Rel. Affinity,[2],0.88
"Conjugate of 4-(2-oxoethoxy)benzenepropanoic acid (5) condensed with Calicheamicin N-acetyl gamma dimethyl hydrazide and h-P67.6 (antibody, V domains shown, drug-linker amide on lysine side chains, sites not stated; drug-linker amide on lysine side chains, sites not stated) VH: EVQLVQSGAEVKKPGSSVKVSCKASGYTITDSNIHWVRQAPGQSLEWIGYIYPYNGGTDYNQKFKNRATLTVDNPTNTAYMELSSLRSEDTDFYYCVNGNPWLAYWGQGTLVTVSS VL: DIQLTQSPSTLSASVGDRVTITCRASESLDNYGIRFLTWFQQKPGKAPKLLMYAASNQGSGVPSRFSGSGSGTEFTLTISSLQPDDFATYYCQQTKEVPWSFGQGTKVEVKR",In vitro IC50 (3H-thymidine incorporation),[3],2.22 ng/mL
same,Rel. Affinity,[4],1.09
"Conjugate of 3-(2-oxoethoxy)benzoic acid (6) condensed with Calicheamicin N-acetyl gamma dimethyl hydrazide and h-P67.6 (antibody, V domains shown, drug-linker amide on lysine side chains, sites not stated; drug-linker amide on lysine side chains, sites not stated) VH: EVQLVQSGAEVKKPGSSVKVSCKASGYTITDSNIHWVRQAPGQSLEWIGYIYPYNGGTDYNQKFKNRATLTVDNPTNTAYMELSSLRSEDTDFYYCVNGNPWLAYWGQGTLVTVSS VL: DIQLTQSPSTLSASVGDRVTITCRASESLDNYGIRFLTWFQQKPGKAPKLLMYAASNQGSGVPSRFSGSGSGTEFTLTISSLQPDDFATYYCQQTKEVPWSFGQGTKVEVKR",In vitro IC50 (3H-thymidine incorporation),[5],0.69 ng/mL
same,Rel. Affinity,[4],1.19
"Conjugate of 4-(4-acetylphenoxy)butanoic acid (7) condensed with Calicheamicin N-acetyl gamma dimethyl hydrazide and h-P67.6 (antibody, V domains shown, drug-linker amide on lysine side chains, sites not stated; drug-linker amide on lysine side chains, sites not stated) VH: EVQLVQSGAEVKKPGSSVKVSCKASGYTITDSNIHWVRQAPGQSLEWIGYIYPYNGGTDYNQKFKNRATLTVDNPTNTAYMELSSLRSEDTDFYYCVNGNPWLAYWGQGTLVTVSS VL: DIQLTQSPSTLSASVGDRVTITCRASESLDNYGIRFLTWFQQKPGKAPKLLMYAASNQGSGVPSRFSGSGSGTEFTLTISSLQPDDFATYYCQQTKEVPWSFGQGTKVEVKR",Ex vivo inhibition of colony formation,[6],96 % inhibition
same,In vitro IC50 (3H-thymidine incorporation),[6],0.098 ng/mL
same,Rel. Affinity,[4],0.75
"Conjugate of 4-(4-acetylphenoxy)butanoic acid (7) condensed with calicheamicin gamma dimethyl hydrazide and h-P67.6 (antibody, V domains shown, drug-linker amide on lysine side chains, sites not stated; drug-linker amide on lysine side chains, sites not stated) VH: EVQLVQSGAEVKKPGSSVKVSCKASGYTITDSNIHWVRQAPGQSLEWIGYIYPYNGGTDYNQKFKNRATLTVDNPTNTAYMELSSLRSEDTDFYYCVNGNPWLAYWGQGTLVTVSS VL: DIQLTQSPSTLSASVGDRVTITCRASESLDNYGIRFLTWFQQKPGKAPKLLMYAASNQGSGVPSRFSGSGSGTEFTLTISSLQPDDFATYYCQQTKEVPWSFGQGTKVEVKR",In vitro IC50 (3H-thymidine incorporation),[7],0.001 ng/mL
same,Rel. Affinity,[4],0.78
"Conjugate of 4-(4-formylphenoxy)butanoic acid (9) condensed with Calicheamicin N-acetyl gamma dimethyl hydrazide and h-P67.6 (antibody, V domains shown, drug-linker amide on lysine side chains, sites not stated; drug-linker amide on lysine side chains, sites not stated) VH: EVQLVQSGAEVKKPGSSVKVSCKASGYTITDSNIHWVRQAPGQSLEWIGYIYPYNGGTDYNQKFKNRATLTVDNPTNTAYMELSSLRSEDTDFYYCVNGNPWLAYWGQGTLVTVSS VL: DIQLTQSPSTLSASVGDRVTITCRASESLDNYGIRFLTWFQQKPGKAPKLLMYAASNQGSGVPSRFSGSGSGTEFTLTISSLQPDDFATYYCQQTKEVPWSFGQGTKVEVKR",Ex vivo inhibition of colony formation,[8],98 % inhibition
same,In vitro IC50 (3H-thymidine incorporation),[8],0.52 ng/mL
same,Rel. Affinity,[4],0.56
"Conjugate of 4-acetylbenzenebutanoic acid (19) condensed with Calicheamicin N-acetyl gamma dimethyl hydrazide and h-P67.6 (antibody, V domains shown, drug-linker amide on lysine side chains, sites not stated; drug-linker amide on lysine side chains, sites not stated) VH: EVQLVQSGAEVKKPGSSVKVSCKASGYTITDSNIHWVRQAPGQSLEWIGYIYPYNGGTDYNQKFKNRATLTVDNPTNTAYMELSSLRSEDTDFYYCVNGNPWLAYWGQGTLVTVSS VL: DIQLTQSPSTLSASVGDRVTITCRASESLDNYGIRFLTWFQQKPGKAPKLLMYAASNQGSGVPSRFSGSGSGTEFTLTISSLQPDDFATYYCQQTKEVPWSFGQGTKVEVKR",Ex vivo inhibition of colony formation,[9],99 % inhibition
same,In vitro IC50 (3H-thymidine incorporation),[9],0.012 ng/mL
same,Rel. Affinity,[4],0.5
"Conjugate of 4-(2-acetyl-1-naphthalenyl)oxy! butanoic acid (20) condensed with Calicheamicin N-acetyl gamma dimethyl hydrazide and h-P67.6 (antibody, V domains shown, drug-linker amide on lysine side chains, sites not stated; drug-linker amide on lysine side chains, sites not stated) VH: EVQLVQSGAEVKKPGSSVKVSCKASGYTITDSNIHWVRQAPGQSLEWIGYIYPYNGGTDYNQKFKNRATLTVDNPTNTAYMELSSLRSEDTDFYYCVNGNPWLAYWGQGTLVTVSS VL: DIQLTQSPSTLSASVGDRVTITCRASESLDNYGIRFLTWFQQKPGKAPKLLMYAASNQGSGVPSRFSGSGSGTEFTLTISSLQPDDFATYYCQQTKEVPWSFGQGTKVEVKR",Ex vivo inhibition of colony formation,[10],76 % inhibition
same,In vitro IC50 (3H-thymidine incorporation),[10],0.061 ng/mL
same,Rel. Affinity,[4],0.5
"Conjugate of 4-formylphenoxyacetic acid (1) condensed with Calicheamicin N-acetyl gamma dimethyl hydrazide and h-P67.6 (antibody, V domains shown, drug-linker amide on lysine side chains, sites not stated; drug-linker amide on lysine side chains, sites not stated) VH: EVQLVQSGAEVKKPGSSVKVSCKASGYTITDSNIHWVRQAPGQSLEWIGYIYPYNGGTDYNQKFKNRATLTVDNPTNTAYMELSSLRSEDTDFYYCVNGNPWLAYWGQGTLVTVSS VL: DIQLTQSPSTLSASVGDRVTITCRASESLDNYGIRFLTWFQQKPGKAPKLLMYAASNQGSGVPSRFSGSGSGTEFTLTISSLQPDDFATYYCQQTKEVPWSFGQGTKVEVKR",Ex vivo inhibition of colony formation,[11],95 % inhibition
same,In vitro IC50 (3H-thymidine incorporation),[11],0.23 ng/mL
same,Rel. Affinity,[4],0.65
"Conjugate of 4-formylbenzoic acid (2) condensed with Calicheamicin N-acetyl gamma dimethyl hydrazide and h-P67.6 (antibody, V domains shown, drug-linker amide on lysine side chains, sites not stated; drug-linker amide on lysine side chains, sites not stated) VH: EVQLVQSGAEVKKPGSSVKVSCKASGYTITDSNIHWVRQAPGQSLEWIGYIYPYNGGTDYNQKFKNRATLTVDNPTNTAYMELSSLRSEDTDFYYCVNGNPWLAYWGQGTLVTVSS VL: DIQLTQSPSTLSASVGDRVTITCRASESLDNYGIRFLTWFQQKPGKAPKLLMYAASNQGSGVPSRFSGSGSGTEFTLTISSLQPDDFATYYCQQTKEVPWSFGQGTKVEVKR",Ex vivo inhibition of colony formation,[12],63 % inhibition
same,In vitro IC50 (3H-thymidine incorporation),[12],4.8 ng/mL
same,Rel. Affinity,[4],0.99
